These results are taken from PMC3131385, “TBP Binding-Induced Folding of the Glucocorticoid Receptor AF1 Domain Facilitates Its Interaction with Steroid Receptor Coactivator-1” (PLoS ONE, 2011).

The chains are these.
B1: glucocorticoid receptor (GR) N-terminal activation function domain AF1 (domain or fragment, human, UniProt P04150 77-262, looked up)
chain: DLSKAVSLSMGLYMGETETKVMGNDLGFPQQGQISLSSGETDLKLLEESIANLNRSTSVPENPKSSASTAVSAAPTEKEFPKTHSDVSSEQQHLKGQTGTNGGNVKLYTTDQSTFDILQDLEFSSGSPGKETNESPWRSDLLIDENCLLSPLAGEDDSFLLEGNSNEDCKPLILPDTKPKIKDNGD
notes: human glucocorticoid receptor, AF1 domain, amino acid residues 77-262; made from human GR cDNA digested with BglII; also called GR AF1
B3: TBPC, 181 C-terminal residues of human TATA box binding protein (TBP) (domain or fragment, UniProt P20226 159-339, looked up)
chain: SGIVPQLQNIVSTVNLGCKLDLKTIALRARNAEYNPKRFAAVIMRIREPRTTALIFSSGKMVCTGAKSEEQSRLAARKYARVVQKLGFPAKFLDFKIQNMVGSCDVKFPIRLEGLVLTHQQFSSYEPELFPGLIYRMIKPRIVLLIFVSGKVVLTGAKVRAEIYEAFENIYPILKGFRKTT
notes: source: E. coli BL21(DE3), purified (NTA column, imidazole step-gradient)

Test [1] concerns the target T1, TBPC, 181 C-terminal residues of human TATA box binding protein (TBP) (human, UniProt P20226 159-339).
T1 chain: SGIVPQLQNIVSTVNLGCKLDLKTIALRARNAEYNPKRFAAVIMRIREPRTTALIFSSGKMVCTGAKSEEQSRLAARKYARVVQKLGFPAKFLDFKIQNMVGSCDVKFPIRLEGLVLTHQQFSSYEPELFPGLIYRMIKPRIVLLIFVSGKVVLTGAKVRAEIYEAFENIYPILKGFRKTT
Put plainly: SPR. (SPR reads the build-up and loss of mass on a sensor chip optically.)

Test [2] concerns the target B3. Put plainly: SPR; TBPc immobilised on C1 chip (Fc2, 200-250 RU, through ionic interaction), AF1 as analyte 0.2-6.4 µM, multi-cycle kinetics, room temperature, 0.01 M HEPES pH 7.4, 0.15 M NaCl, 50 µM EDTA, 0.05% Tween-20; 1:1 Langmuir model, KD = kd/ka. As to conditions: both partners purified.
The target in test [3] is T2, steroid receptor coactivator-1 (SRC-1) (human (endogenous in HeLa), UniProt Q15788 1-1441).
T2 construct: source: endogenous, HeLa nuclear extract
Briefly: co-IP; SRC-1 antibody on protein A/G-agarose beads; HeLa nuclear extract (0.5 mg total protein) mixed with 10 µg purified AF1 and/or TBPC, 4°C; blot with GR AF1 antibody. The conditions noted are these: one partner purified.

The target in test [4] is B1. Briefly: circular dichroism titration; far-UV CD at 22°C, AF1 fixed at 4.5 µM, TBPC varied (AF1:TBPC 1:0.25 to 1:2); ellipticity at 220 nm, experimental against theoretical sum. As to conditions: both partners purified.
Test [5] addresses B1. Briefly: SPR; TBPc immobilised on C1 chip (Fc2, 200-250 RU, through ionic interaction), AF1 as analyte 0.2-6.4 µM, multi-cycle kinetics, room temperature, 0.01 M HEPES pH 7.4, 0.15 M NaCl, 50 µM EDTA, 0.05% Tween-20; 1:1 Langmuir model, KD = kd/ka. The conditions noted are these: both partners purified.

T2 sequence (Q15788 whole entry): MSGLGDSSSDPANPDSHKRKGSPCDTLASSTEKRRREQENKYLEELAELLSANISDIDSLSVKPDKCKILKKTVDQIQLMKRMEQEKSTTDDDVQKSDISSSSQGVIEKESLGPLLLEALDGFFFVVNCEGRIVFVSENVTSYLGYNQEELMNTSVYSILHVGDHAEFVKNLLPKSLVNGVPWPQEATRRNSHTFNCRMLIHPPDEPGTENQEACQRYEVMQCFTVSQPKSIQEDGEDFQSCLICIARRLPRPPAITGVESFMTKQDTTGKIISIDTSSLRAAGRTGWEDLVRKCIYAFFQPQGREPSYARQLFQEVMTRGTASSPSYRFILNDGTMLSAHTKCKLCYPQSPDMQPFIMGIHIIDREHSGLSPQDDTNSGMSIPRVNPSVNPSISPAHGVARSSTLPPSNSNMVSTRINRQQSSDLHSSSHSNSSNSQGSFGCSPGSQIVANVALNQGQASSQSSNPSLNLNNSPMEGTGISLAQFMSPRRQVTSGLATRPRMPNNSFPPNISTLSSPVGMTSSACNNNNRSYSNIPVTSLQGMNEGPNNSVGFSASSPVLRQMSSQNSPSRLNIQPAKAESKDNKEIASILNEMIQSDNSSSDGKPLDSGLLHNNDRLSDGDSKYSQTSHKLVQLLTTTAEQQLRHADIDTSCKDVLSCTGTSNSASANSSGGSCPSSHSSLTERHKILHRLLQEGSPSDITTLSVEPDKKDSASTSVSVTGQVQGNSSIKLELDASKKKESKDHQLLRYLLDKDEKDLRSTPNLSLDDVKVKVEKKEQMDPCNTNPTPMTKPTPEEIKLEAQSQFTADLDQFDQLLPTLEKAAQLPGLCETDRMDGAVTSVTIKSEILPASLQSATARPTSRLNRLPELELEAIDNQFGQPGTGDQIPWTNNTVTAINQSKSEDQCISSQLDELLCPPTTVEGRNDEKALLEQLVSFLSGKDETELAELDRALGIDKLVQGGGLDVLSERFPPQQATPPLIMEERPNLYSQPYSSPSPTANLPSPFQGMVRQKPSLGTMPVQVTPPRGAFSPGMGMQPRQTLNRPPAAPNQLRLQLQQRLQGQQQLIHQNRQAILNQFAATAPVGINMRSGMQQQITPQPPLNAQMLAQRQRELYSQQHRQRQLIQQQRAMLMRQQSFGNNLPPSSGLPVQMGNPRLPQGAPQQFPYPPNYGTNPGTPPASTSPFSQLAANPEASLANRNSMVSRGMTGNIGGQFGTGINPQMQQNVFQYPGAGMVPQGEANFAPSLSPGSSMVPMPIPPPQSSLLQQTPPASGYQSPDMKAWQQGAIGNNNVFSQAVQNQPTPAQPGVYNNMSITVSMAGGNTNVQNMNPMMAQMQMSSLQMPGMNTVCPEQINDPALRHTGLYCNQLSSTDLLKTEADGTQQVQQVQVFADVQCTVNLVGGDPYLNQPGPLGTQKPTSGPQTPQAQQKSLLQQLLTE

Regarding B1, the koff (as a rule, the rate constant with which the complex falls apart) in test [1] turned out to be 0.00143 s⁻¹. Moreover, the stoichiometry N (usually the number of molecules, sites or subunits per partner or assembly) in test [2] was 1.

B2: GR AF1:TBPC complex (complex, human)
chain 1: DLSKAVSLSMGLYMGETETKVMGNDLGFPQQGQISLSSGETDLKLLEESIANLNRSTSVPENPKSSASTAVSAAPTEKEFPKTHSDVSSEQQHLKGQTGTNGGNVKLYTTDQSTFDILQDLEFSSGSPGKETNESPWRSDLLIDENCLLSPLAGEDDSFLLEGNSNEDCKPLILPDTKPKIKDNGD
chain 2: SGIVPQLQNIVSTVNLGCKLDLKTIALRARNAEYNPKRFAAVIMRIREPRTTALIFSSGKMVCTGAKSEEQSRLAARKYARVVQKLGFPAKFLDFKIQNMVGSCDVKFPIRLEGLVLTHQQFSSYEPELFPGLIYRMIKPRIVLLIFVSGKVVLTGAKVRAEIYEAFENIYPILKGFRKTT
notes: human glucocorticoid receptor, AF1 domain, amino acid residues 77-262; as m1; as m2; AF1, TBPC and the nuclear extract were mixed at once; only AF1 was detected on the blot; also called AF1 complexed with TBPC; source: purified AF1 and purified TBPC (10 µg) mixed together with HeLa nuclear extract
Turning to B2, the “fold increase against AF1 alone” value in test [3] was ~8 fold.
B3: in test [4], the “stoichiometry N” value is ~1. Besides, the Kd (in general, the constant that tells how readily two partners part at equilibrium) in test [5] is 460 nM.
